Data published in paper doi:10.1101/2024.04.29.591687 (bioRxiv, 2024).

Target: T1, tGFP-tagged mCLDN5 (mouse, UniProt O54942 1-218)
T1 sequence: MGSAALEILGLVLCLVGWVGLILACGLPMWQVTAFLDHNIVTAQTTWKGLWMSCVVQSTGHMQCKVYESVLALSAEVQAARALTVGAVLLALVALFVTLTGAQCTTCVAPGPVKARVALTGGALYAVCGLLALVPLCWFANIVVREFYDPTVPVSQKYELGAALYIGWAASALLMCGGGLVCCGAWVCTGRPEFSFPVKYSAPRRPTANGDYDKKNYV
Experiment: MST

ESVLALNAEVQAAR [f1-C5C2]
Kd: 68.3 µM
